This test has as its target T1, recombinant human ROR1-ECD protein (human, UniProt Q01973 30-406).
T1 construct: also called human ROR1 extracellular domain
Nature of the test: BLI (Octet RED96), FIT-Ig captured on anti-hIgG Fc sensors, ROR1 ECD in solution. The procedure:
The ROR1/CD3 FIT-Ig proteins were assayed for and ranked by dissociation rate constant (koff, “off-rate”) using an Octet®RED96 biolayer interferometry (Pall FortéBio LLC). Anti-hIgG Fc Capture (AHC) Biosensors (Pall) were first exposed to antibody at a concentration of 100 nM for 30 seconds to capture antibody, then dipped into running buffer (1× pH 7.2 PBS, 0.05% Tween 20, 0.1% BSA) for 60 seconds to check baseline. Sensors with captured antibody were dipped into recombinant human ROR1 ECD protein at 10 ug/ml for 5 minutes to measure association, followed by dipped into running buffer for 1200 seconds to measure dissociation. The association and dissociation curves were fitted to a 1:1 Langmuir binding model using ForteBio Data Analysis software (Pall). The off-rate ratios were calculated by the off-rate of antibody to that of FIT1007-12B. Lower ratio indicates slower dissociation of the antibody in comparison with the parental chimeric antibody FIT1007-12B.
On the technique in general: Biolayer interferometry detects binding as a change in optical thickness at a sensor tip.

One molecule from patent US20240010753A1 (EPIMAB BIOTHERAPEUTICS HK, published 2024) can be followed below.

T1 sequence (Q01973 30-406): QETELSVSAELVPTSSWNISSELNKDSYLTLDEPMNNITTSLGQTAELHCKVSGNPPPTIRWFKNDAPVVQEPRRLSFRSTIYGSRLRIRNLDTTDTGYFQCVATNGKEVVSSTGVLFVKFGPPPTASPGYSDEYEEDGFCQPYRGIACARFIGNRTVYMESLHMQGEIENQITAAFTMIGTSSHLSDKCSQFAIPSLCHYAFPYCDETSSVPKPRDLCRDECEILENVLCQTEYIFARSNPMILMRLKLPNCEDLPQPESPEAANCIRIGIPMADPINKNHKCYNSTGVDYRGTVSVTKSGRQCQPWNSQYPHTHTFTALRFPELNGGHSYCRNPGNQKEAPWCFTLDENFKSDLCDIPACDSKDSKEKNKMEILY

B1: FIT1007-12B-15 (bispecific antibody, human IgG1, kappa, L234A L235A)
chain 1: not shown
chain 2: QVQLQQSGPELVKPGASVKISCKASGYAFSRSWMNWVKQRPEKGLEWIGRIYPGNADIKYQGNFKGKATLTADKSSSTAYMQLSSLTSEDSAVYFCAHIYYDFYYALDYWGQGTSVTVSSASTKGPSVFPLAPSSKSTSGGTAALGCLVKDYFPEPVTVSWNSGALTSGVHTFPAVLQSSGLYSLSSVVTVPSSSLGTQTYICNVNHKPSNTKVDKKVEPKSC
chain 3: not shown
notes: Chimeric ROR1 arm with CDR-H2 point mutations (AQ); ROR1xCD3 FIT-Ig, no linkers
On to B1, for which the binding result was “no binding (tested: 10 ug/ml)”.
